Residue numbers refer to the chain shown, from its start. In names and notes the source's numbering stands. Each block holds one binder with its values, some of them ahead of it.
Columns and labels:
[1] = biological target: the molecule itself; assay: SEC; HTRA proteins and their LoopA deletion mutants alone; Superdex 200 Increase 3.2/300; 200 mM NaCl, 20 mM HEPES pH 7.5, 0.25% CHAPS; size against gel filtration standard
[2] = biological target: T1, HTRA1^PD (human HTRA1 protease domain, D161-K379) (human, UniProt Q92743); assay: SPR; His6-tagged HTRA proteins (about 200 RU) captured with the His-capture kit on a CM5 chip, Fab15H6.v4 as analyte, single-cycle kinetics, three-fold dilutions from 1 nM or 1 μM; absence of binding verified with 3 μM Fab; Biacore S200, 25 °C, HBS-EP; 1:1 Langmuir model; conditions: both partners purified
T1 construct: human HTRA1 protease domain, D161-K379, 24 kDa; His6 tag is TEV or thrombin cleavable; captured by it in SPR; also called wildtype HTRA1^PD; active HTRA1^PD; source: E. coli, purified (Ni-NTA, SEC); not shown: His6, N-terminal, kept

[3] = biological target: T2, HTRA3^PD/PDZ (HTRA3 protease/PDZ domain, L130-M453) (Homo sapiens, UniProt P83110); assay: as above; conditions: both partners purified
T2 construct: human HTRA3 protease and PDZ domains, L130-M453; also called wildtype HTRA3; source: E. coli, purified (Ni-NTA, SEC); not shown: His6, N-terminal, kept

[4] = biological target: T3, HTRA2^PD/PDZ (HTRA2 protease/PDZ domain, A134-E458) (human, UniProt O43464); assay: as above; conditions: both partners purified
T3 construct: human HTRA2 protease and PDZ domains, A134-E458; also called wildtype HTRA2; source: E. coli, purified (Ni-NTA, SEC); not shown: His6, N-terminal, kept

[5] = biological target: T1, HTRA1^PD (human HTRA1 protease domain, …); assay: SEC; HTRA1 proteins mixed with Fab15H6.v4 (1:2 molar ratio, 30 min on ice); Superdex 200 Increase 3.2/300; 200 mM NaCl, 20 mM HEPES pH 7.5, 0.25% CHAPS; size against protein standards; conditions: both partners purified
[6] = biological target: T4, HTRA1^PD/SA (catalytically inactive S328A mutant of the HTRA1 protease domain) (human, UniProt Q92743, S328A); assay: as above; conditions: both partners purified
T4 construct: human HTRA1 protease domain, D161-K379, with S328A; source: E. coli, purified (Ni-NTA, SEC)

[7] = biological target: T5, HTRA1^FL/SA (catalytically inactive S328A mutant of full-length HTRA1) (human, UniProt Q92743, S328A); assay: as above; conditions: both partners purified
T5 construct: human HTRA1, Q23-P480, with S328A; source: Trichoplusia ni cells, purified from the medium (Ni-NTA, SEC)

[8] = biological target: T6, HTRA3 LoopA wildtype peptide (Homo sapiens); assay: SPR; Fab15H6.v4 (1000 RU) immobilised on a CM5 chip by amine coupling, synthetic LoopA peptides as analytes, single-cycle kinetics, three-fold dilutions from 10 nM (HTRA1 peptides) or 3 μM (HTRA2, HTRA3, HTRA4 peptides); 25 °C, HBS-EP; conditions: both partners purified
T6 construct: LoopA of human HTRA3, residues 161-172; also called LoopA peptide of HTRA3; source: synthetic peptide (Abclonal)
T6 chain: LRHPLFGRNVPL

[9] = biological target: T7, HTRA1 LoopA wildtype peptide (Homo sapiens); assay: as above; conditions: both partners purified
T7 construct: LoopA of human HTRA1, residues 190-201; also called HTRA1-LoopA peptide; LoopA peptide; source: synthetic peptide (Abclonal for SPR; NeoBiolab for the crystal)
T7 chain: RKLPFSKREVPV

[10] = biological target: T8, HTRA2 LoopA wildtype peptide (Homo sapiens); assay: as above; conditions: both partners purified
T8 construct: LoopA of human HTRA2, residues 168-179; also called LoopA peptide of HTRA2; source: synthetic peptide (Abclonal)
T8 chain: DRHPFLGREVPI

[11] = biological target: T9, HTRA4 LoopA wildtype peptide (Homo sapiens); assay: as above; conditions: both partners purified
T9 construct: LoopA of human HTRA4, residues 188-199; also called LoopA peptide of HTRA4; source: synthetic peptide (Abclonal)
T9 chain: GRLLHGSRLVPV

[12] = biological target: T1, HTRA1^PD (human HTRA1 protease domain, …); assay: SPR; wildtype His6-tagged HTRA1^PD (about 200 RU) captured with the His-capture kit on a CM5 chip; scFv15H6.v4, Fab15H6.v4 and its mutants as analytes, single-cycle kinetics, three-fold dilutions from 10 nM or 1 μM; absence of binding confirmed up to 3 μM; 25 °C, HBS-EP; conditions: both partners purified

T2 sequence (P83110 130-453): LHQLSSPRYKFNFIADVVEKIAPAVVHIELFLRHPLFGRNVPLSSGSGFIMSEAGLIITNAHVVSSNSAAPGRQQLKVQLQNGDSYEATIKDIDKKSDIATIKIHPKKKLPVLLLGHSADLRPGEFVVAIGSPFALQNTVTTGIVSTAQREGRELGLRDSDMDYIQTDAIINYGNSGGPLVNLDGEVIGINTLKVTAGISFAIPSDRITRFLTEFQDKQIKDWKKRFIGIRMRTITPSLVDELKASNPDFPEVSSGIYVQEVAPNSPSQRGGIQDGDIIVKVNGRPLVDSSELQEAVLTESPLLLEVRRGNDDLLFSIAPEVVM

binding result [12]: no binding (tested: 3 μM)
B3: Fab15H6.v4 with all eight key paratope residues mutated to alanine (Fab, V domains shown)
VH: EVQLVQSGAEVKKPGASVKVSCKASGYKFAAAEMHWVRQAPGQGLEWIGGVAPETEGAAYNQKFKGRATITRDTSTSTAYLELSSLRSEDAAVYYCTRGAAADYALDYWGQGTLVTVSS
VL: DIQMTQSPSSLSASVGDRVTITCRASSSVEFIHWYQQKPGKAPKPLISATSNLASGVPSRFSGSGSGTDFTLTISSLQPEDFATYYCQQWSSAPWTFGQGTKVEIK
notes: as the heavy chain of m1, with eight paratope residues of the three CDR loops changed to alanine; as the light chain of m1

Kd [12]: 9.4 nM
B5: scFv15H6.v4 (single chain Fv version of Fab15H6.v4) (scFv, V domains shown)
VH: B3 VH with A30T, A31D, A32S, A52D, A91T, A100Y, A101D, A102Y
VL: B3 VL
notes: variable domain of the light chain of m1, D1-K106; (GGGGS)4 linker; variable domain of the heavy chain of m1, E1-S119

fold affinity loss against Fab15H6.v4 [12]: 200 fold
B6: Fab15H6.v4 Y100A (Fab, V domains shown)
VH: B3 VH with A30T, A31D, A32S, A52D, A91T, A101D, A102Y
VL: B3 VL
notes: as the heavy chain of m1, with Y100A; as the light chain of m1

Further lines, the binder ahead of its results:

B1: HTRA1^PD-ΔLoopA (domain or fragment)
chain: not shown
notes: human HTRA1 protease domain, D161-K379, entire LoopA replaced with the beta hairpin motif NG; also called HTRA1-ΔLoopA; HTRA1^PD-ΔLoop mutant; source: E. coli, purified (Ni-NTA, SEC); not shown: His6, N-terminal, kept
stoichiometry N [1]: 3

B2: Fab15H6.v4 (Fab, V domains shown)
VH: B3 VH with A30T, A31D, A32S, A52D, A91T, A100Y, A101D, A102Y
VL: B3 VL
notes: light chain of Fab15H6.v4; also called the Fab; source: expressed in Complete CRAP media with carbenicillin, purified (Protein G, SP Sepharose)
Kd [2]: 0.12 nM
binding result [3]: no binding (tested: 3 μM Fab)
binding result [4]: no binding (tested: 3 μM Fab)
stoichiometry N [5]: 3 Fab per HTRA1 trimer
stoichiometry N [6]: 3 Fab per HTRA1 trimer
stoichiometry N [7]: 3 Fab per HTRA1 trimer
binding result [8]: no binding (tested: 3 μM)
Kd [9]: 0.77 nM
binding result [10]: no binding (tested: 3 μM)
binding result [11]: no binding (tested: 3 μM)

B4: Fab15H6.v4 D52A (Fab, V domains shown)
VH: B3 VH with A30T, A31D, A32S, A91T, A100Y, A101D, A102Y
VL: B3 VL
notes: as the heavy chain of m1, with D52A; as the light chain of m1
fold affinity loss against Fab15H6.v4 [12]: 2000 fold

B7: HTRA2^PD/PDZ (HTRA2 protease/PDZ domain, A134-E458) (domain or fragment, human, UniProt O43464 134-458, looked up)
chain: AVPSPPPASPRSQYNFIADVVEKTAPAVVYIEILDRHPFLGREVPISNGSGFVVAADGLIVTNAHVVADRRRVRVRLLSGDTYEAVVTAVDPVADIATLRIQTKEPLPTLPLGRSADVRQGEFVVAMGSPFALQNTITSGIVSSAQRPARDLGLPQTNVEYIQTDAAIDFGNSGGPLVNLDGEVIGVNTMKVTAGISFAIPSDRLREFLHRGEKKNSSSGISGSQRRYIGVMMLTLSPSILAELQLREPSFPDVQHGVLIHKVILGSPAHRAGLRPGDVILAIGEQMVQNAEDVYEAVRTQSQLAVQIRRGRETLTLYVTPEVTE
notes: human HTRA2 protease and PDZ domains, A134-E458; also called wildtype HTRA2; source: E. coli, purified (Ni-NTA, SEC); not shown: His6, N-terminal, kept
stoichiometry N [1]: 3

Reference: article PMC9445180, “Allosteric inhibition of HTRA1 activity by a conformational lock mechanism to treat age-related macular degeneration” (Nature Communications, 2022)
